# Test results from patent US20190071480A1 (Biogen, published 2019).
# T1: extracellular domain of activin receptor type IIB (ActRIIBecd), biotinylated (Homo sapiens (Human), UniProt Q13705 27-117, amino-biotinylated with amine-PEG3-Biotin)
# T1 construct: immobilised on a streptavidin-coated sensor chip; also called biotinylated ActRIIBecd; extracellular domain of ActRIIB
# T1 sequence: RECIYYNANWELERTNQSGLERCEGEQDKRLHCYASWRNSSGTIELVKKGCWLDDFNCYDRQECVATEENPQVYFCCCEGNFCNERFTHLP
# B1: SEQ ID NO: 340, cysteine pairs C15-C15^b, C29-C62^a, C30-C64^a, C88-C92^a (designed binder)
# chain: AQAKHKQRKRLKSSCKRHPLYNSKDPKACCVPTELSAPSPLYLDENEKPVLKNYQDMVVHGCGCRVDFKDVGWNDHAVAPPGYHAFYCHGECPFPLADHLNSDNHAIVQTKVNSV
# modifications: disulfides C15-C15 (inter), C29-C62 (intra), C30-C64 (intra), C88-C92 (intra)
# notes: homodimer by intermolecular disulfide
# B2: SEQ ID NO: 340, cysteine pairs C15-C15^b, C29-C64^a, C30-C62^a, C88-C92^a (designed binder)
# chain: B1 chain
# modifications: disulfides C15-C15 (inter), C29-C64 (intra), C30-C62 (intra), C88-C92 (intra)
# notes: as for B1
# B3: SEQ ID NO: 340, cysteine pairs C15-C29^a (designed binder)
# chain: B1 chain
# modifications: disulfides C15-C29 (intra)
# B4: SEQ ID NO: 348, cysteine pairs C29-C30^a (designed binder)
# chain: GQAKRKGYKRLKSSCKRHPLYNSKIPKACCVPTELSAISMLYLDENEKVVLKNYQDMVVEGCGCRVDFSDVGWNDWIVAPPGYHAFYCHGECPFPLADHLNSTNHAIVQTLVNSV
# modifications: disulfides C29-C30 (intra)
# B5: SEQ ID NO: 348, cysteine pairs C15-C15^b, C29-C62^b, C30-C64^b, C88-C92^a (designed binder)
# chain: B4 chain
# modifications: disulfides C15-C15 (inter), C29-C62 (inter), C30-C64 (inter), C88-C92 (intra)
# notes: as for B1
# B6: SEQ ID NO: 348, cysteine pairs C15-C15^b, C29-C64^a, C30-C62^a, C88-C92^a (designed binder)
# chain: B4 chain
# modifications: disulfides C15-C15 (inter), C29-C64 (intra), C30-C62 (intra), C88-C92 (intra)
# notes: as for B1
# B7: SEQ ID NO: 316, cysteine pairs C8-C67^a (designed binder)
# chain: NSKDPKACCVPTELSAPSPLYLDENEKPVLKNYQDMVVHGCGCRVDFKDVGWNDHAVAPPGYHAFYCHGECPFPLADHLNSDNHAIVQTKVNSVGQAKRKGYKRLKSSCKRHPLY
# modifications: disulfides C8-C67 (intra)
# B8: SEQ ID NO: 316, cysteine pairs C67-C71^a, C8-C43^b, C9-C41^b, C109-C109^b (designed binder)
# chain: B7 chain
# modifications: disulfides C67-C71 (intra), C8-C43 (inter), C9-C41 (inter), C109-C109 (inter)
# notes: as for B1
# B9: SEQ ID NO: 316, cysteine pairs C67-C71^a, C8-C43^a, C9-C41^a, C109-C109^b (designed binder)
# chain: B7 chain
# modifications: disulfides C67-C71 (intra), C8-C43 (intra), C9-C41 (intra), C109-C109 (inter)
# notes: as for B1
# B10: SEQ ID NO: 308, cysteine pairs C59-C59^b, C8-C43^a, C9-C41^a, C88-C92^a (designed binder)
# chain: NSKDPKACCVPTELSAPSPLYLDENEKPVLKNYQDMVVHGCGCRGQAKRKGYKRLKSSCKRHPLYVDFKDVGWNDHAVAPPGYHAFYCHGECPFPLADHLNSDNHAIVQTKVNSV
# modifications: disulfides C59-C59 (inter), C8-C43 (intra), C9-C41 (intra), C88-C92 (intra)
# notes: as for B1
# B11: SEQ ID NO: 324, cysteine pairs C15-C15^b, C79-C114^a, C80-C112^a, C44-C48^a (designed binder)
# chain: AQAKHKQRKRLKSSCKRHPLYVDFKDVGWNDHAVAPPGYHAFYCHGECPFPLADHLNSDNHAIVQTKVNSVNSKIPKACCVPTELSAISMLYLDENEKVVLKNYQDMVVEGCGCR
# modifications: disulfides C15-C15 (inter), C79-C114 (intra), C80-C112 (intra), C44-C48 (intra)
# notes: as for B1
# B12: SEQ ID NO: 332, cysteine pairs C15-C15^b, C80-C112^a, C79-C114^a, C44-C48^a (designed binder)
# chain: GQAKRKGYKRLKSSCKRHPLYVDFSDVGWNDWIVAPPGYHAFYCHGECPFPLADHLNSTNHAIVQTLVNSVNSKDPKACCVPTELSAPSPLYLDENEKPVLKNYQDMVVHGCGCR
# modifications: disulfides C15-C15 (inter), C80-C112 (intra), C79-C114 (intra), C44-C48 (intra)
# notes: as for B1
# B13: SEQ ID NO: 332, cysteine pairs C15-C15^b, C80-C114^b, C79-C112^b, C44-C48^a (designed binder)
# chain: B12 chain
# modifications: disulfides C15-C15 (inter), C80-C114 (inter), C79-C112 (inter), C44-C48 (intra)
# notes: as for B1
# B14: SEQ ID NO: 332, cysteine pairs C15-C15^b, C80-C114^a, C79-C112^a, C44-C48^a (designed binder)
# chain: B12 chain
# modifications: disulfides C15-C15 (inter), C80-C114 (intra), C79-C112 (intra), C44-C48 (intra)
# notes: as for B1
# B15: SEQ ID NO: 332, cysteine pairs C79-C80^a (designed binder)
# chain: B12 chain
# modifications: disulfides C79-C80 (intra)
# Legend:
# [1] = molecular target: T1, extracellular domain of activin …; assay: BIAcore SPR as Example 5 (method not restated); SD ±1.17 nM
# Experimental: (§1) Biosensor experiments. In one embodiment, experiments were performed on a BIAcore™ T100/T200 instrument (Pharmacia Biosensor AB) in the multichannel mode (serial flow path involving flow cells 1+2+3+4). Flow rate was 10 μl/min; temperature was 25° C.; and data were recorded at 2.5 points/s. All four segments of a sensor chip CMS were coated with streptavidin (Sigma) to a density of 2000 pg/mm² (2000 resonance units) by the aminocoupling procedure. ActRIIBecd (10 mg) and amine-PEG3-Biotin (10 mg, Pierce, Rockford, Ill.) were dissolved in 200 μl H₂O and 10 mg NaCNBH₃ was added to prepare biotinylated ActRIIBecd. The reaction mixture was heated at 70° C. for 24 h, after that a further 10 mg NaCNBH₃ was added and the reaction was heated at 70° C. for another 24 h. After cooling to room temperature, the mixture was desalted with the spin column (3,000 molecular weight cut off (MWCO)). […] Sensograms were recorded during flow of the analyte (the ActRIIBecd-associated polypeptides (i.e., domains) as previously described) first through flow cell 1 (control) then through flow cell 2 (biotinylated ActRIIBecd). […] The sensograms obtained at 1.11, 3.33, 10, 30, and 90 nM analyte were evaluated for equilibrium binding, association rate, and dissociation rate by using the programs supplied with the instrument (BIA evaluation 2.1; Software Handbook. 1995; Pharmacia Biosensor AB).
# [2] = molecular target: T1, extracellular domain of activin …; assay: Mean KD column of Table 5; method not restated (BIAcore as Example 5); species also listed in Table 4
# In short: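 Using a streptavidin-captured, biotinylated ectodomain, binding of the domain polypeptides was monitored at 25° C, 10 μl/min. Association, dissociation and equilibrium values were evaluated from concentrations of 1.11, 3.33, 10, 30 and 90 nM.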
# [3] = molecular target: T1, extracellular domain of activin …; assay: BIAcore SPR as Example 5 (method not restated); SD ±1.95 nM
# Experimental: as §1
# [4] = molecular target: T1, extracellular domain of activin …; assay: BIAcore SPR as Example 5 (method not restated); SD ±2.63 nM
# Experimental: as §1
# [5] = molecular target: T1, extracellular domain of activin …; assay: BIAcore SPR, biotinylated ActRIIBecd on chip; SD ±11.88 nM
# Experimental: as §1
# [6] = molecular target: T1, extracellular domain of activin …; assay: BIAcore SPR, biotinylated ActRIIBecd on chip; SD ±13.69 nM
# [7] = molecular target: T1, extracellular domain of activin …; assay: BIAcore SPR, biotinylated ActRIIBecd on chip; SD ±17.89 nM
# Experimental: as §1
# [8] = molecular target: T1, extracellular domain of activin …; assay: BIAcore SPR, biotinylated ActRIIBecd on chip; SD ±16.78 nM
# Experimental: as §1
# [9] = molecular target: T1, extracellular domain of activin …; assay: BIAcore SPR as Example 5 (method not restated); SD ±3.33 nM
# Experimental: as §1
# [10] = molecular target: T1, extracellular domain of activin …; assay: BIAcore SPR as Example 5 (method not restated); SD ±1.45 nM
# Experimental: as §1
# [11] = molecular target: T1, extracellular domain of activin …; assay: BIAcore SPR as Example 5 (method not restated); SD ±1.92 nM
# Experimental: as §1
# [12] = molecular target: T1, extracellular domain of activin …; assay: BIAcore SPR as Example 5 (method not restated); SD ±2.65 nM
# Experimental: as §1
# [13] = molecular target: T1, extracellular domain of activin …; assay: BIAcore SPR as Example 5 (method not restated); SD ±1.18 nM
# Experimental: as §1
# [14] = molecular target: T1, extracellular domain of activin …; assay: BIAcore SPR as Example 5 (method not restated); SD ±1.04 nM
# Experimental: as §1
# [15] = molecular target: T1, extracellular domain of activin …; assay: BIAcore SPR as Example 5 (method not restated); SD ±1.33 nM
# Experimental: as §1
# [16] = molecular target: T1, extracellular domain of activin …; assay: BIAcore SPR as Example 5 (method not restated); SD ±1.59 nM
# Experimental: as §1
# [17] = molecular target: T1, extracellular domain of activin …; assay: BIAcore SPR as Example 5 (method not restated); SD ±1.84 nM
# Experimental: as §1
# [18] = molecular target: T1, extracellular domain of activin …; assay: BIAcore SPR as Example 5 (method not restated); SD ±1.94 nM
# Experimental: as §1
# [19] = molecular target: T1, extracellular domain of activin …; assay: BIAcore SPR as Example 5 (method not restated); SD ±1.11 nM
# Experimental: as §1
# [20] = molecular target: T1, extracellular domain of activin …; assay: BIAcore SPR as Example 5 (method not restated); SD ±2.36 nM
# Experimental: as §1
binder,measurement,setting,value
B1,Kd,[1],5.77 nM
same,Kd,[2],5.77 nM
B2,Kd,[2],7.19 nM
same,Kd,[3],7.19 nM
B3,Kd,[4],30.1 nM
same,Kd,[2],30.1 nM
NSKIPKACCVPTELSAISMLYLDENEKVVLKNYQDMVVEGCGCR [Clone No. 21 domain (ActRIIBecd-associated polypeptide)],Kd,[5],37.1 nM
NSKDPKACCVPTELSAPSPLYLDENEKPVLKNYQDMVVHGCGCR [Clone No. 19 domain (ActRIIBecd-associated polypeptide)],Kd,[6],40.1 nM
VDFSDVGWNDWIVAPPGYHAFYCHGECPFPLADHLNSDNHAIVQTLVNSV [Clone No. 17 domain (ActRIIBecd-associated polypeptide)],Kd,[7],67.4 nM
VDFSDVGWNDHAVAPPGYHAFYCHGECPFPLADHLNSTNHAIVQTLVNSV [Clone No. 18 domain (ActRIIBecd-associated polypeptide)],Kd,[8],64.1 nM
B4,Kd,[9],29.1 nM
same,Kd,[2],29.1 nM
B5,Kd,[10],6.31 nM
same,Kd,[2],6.31 nM
B6,Kd,[11],6.77 nM
same,Kd,[2],6.77 nM
B7,Kd,[12],28.9 nM
same,Kd,[2],28.9 nM
B8,Kd,[2],5.78 nM
same,Kd,[13],5.78 nM
B9,Kd,[14],6.17 nM
same,Kd,[2],6.17 nM
B10,Kd,[2],6.11 nM
same,Kd,[15],6.11 nM
B11,Kd,[2],8.42 nM
same,Kd,[16],8.42 nM
B12,Kd,[17],7.18 nM
same,Kd,[2],7.18 nM
B13,Kd,[18],7.42 nM
same,Kd,[2],7.42 nM
B14,Kd,[2],5.98 nM
same,Kd,[19],5.98 nM
B15,Kd,[20],28.5 nM
same,Kd,[2],28.5 nM
